Measurements taken from US7807397B2, “Diagnostic method for disorders using copeptin” (B.R.A.H.M.S Aktiengesellschaft, priority 2004, dated 2010).
Read-outs that look alike come from different tables or passages of the source. Where no end group is shown, it is not given here.

Columns and labels:
[1] = format: in vitro ADME, human
Description: The following assay buffer was used: 100 mM sodium phosphate, 150 mM NaCl, 5% bovine serum albumin, 0.1% unspecified sheep IgG, 0.1% sodium azide, pH 7.4.
As a standard material chemically synthesized peptide (peptide PAY 33) was used which corresponds to positions 132-164 of vasopressin-neurophysin 2-copeptin precursor. The standard was diluted in normal horse serum (Sigma). […]
In the test tubes 100 μl of standards or sample as well as 100 μl of assay buffer was pipetted. The tubes were incubated for two hours at 22° C. using gentle rotation. After washing 4 times with 1 ml of washing buffer (0.1% Tween 20), the supernatant was discarded. Then 200 μl of assay buffer, containing 1 million RLU (relative light units) of MA70-tagged antibody was added and incubated for a further two hours under gentle rotation at 22° C. After washing 4 times with 1 ml of washing buffer (0.1% Tween 20), the chemiluminescence bound to the tube was determined in a luminometer (Berthold, LB952T, basic reagents Brahms AG).
Using the software MULTICALC® (Spline Fit), the concentrations of the samples were determined.
The term copeptin immunoreactivity describes the amount of substrate detected by the developed sandwich immunoassay. The sandwich immunoassay uses antibodies raised against positions 132-147 and 149-164 of the vasopressin-neurophysin 2-copeptin-precursor for detection of the substrate. A typical standard curve for the developed assay is described in FIG. 1. Using the assay concentrations above 50 pg/ml copeptin immunoreactivity in plasma or serum can be determined quantitatively.

[2] = system: blood platelets; conditions: reference [21]; cited from earlier work
[3] = reference [14]; cited from earlier work

| Compound | Recovery (%) ([1]; plasma (n = 5), storage 1 d/4° C.) | Recovery (%) ([1]; plasma (n = 5), storage 1 d/RT) | Recovery (%) ([1]; plasma (n = 5), storage 2 d/4° C.) | Recovery (%) ([1]; plasma (n = 5), storage 2 d/RT) | Recovery (%) ([1]; serum (n = 3), storage 1 d/4° C.) | Recovery (%) ([1]; serum (n = 3), storage 1 d/RT) | Recovery (%) ([1]; serum (n = 3), storage 2 d/4° C.) | Recovery (%) ([1]; serum (n = 3), storage 2 d/RT) | fraction bound to blood platelets [2] | half-life in vivo [3] |
| --- | --- | --- | --- | --- | --- | --- | --- | --- | --- | --- |
| copeptin: C-terminal glycoprotein of the VP prohormone, 39 amino acids plus sugar moiety; measured as endogenous copeptin immunoreactivity (ASDRSNATQLDGPAGALLLRLVQLAGAPEPFEPAQPDAY; also: glycosylated (sugar moiety); UniProt P01185 126-164, looked up) | 103.4% | 99.9% | 101.6% | 104.9% | 98.0% | 94.1% | 99.2% | 103.7% | – | – |
| NC(=O)CC[C@@H]1NC(=O)[C@H](Cc2ccccc2)NC(=O)[C@H](Cc2ccc(O)cc2)NC(=O)[C@@H](N)CSSC[C@@H](C(=O)N2CCC[C@H]2C(=O)N[C@@H](CCCN=C(N)N)C(=O)NCC(N)=O)NC(=O)[C@H](CC(N)=O)NC1=O [vasopressin] | – | – | – | – | – | – | – | – | More than 90% | 24 min |
